Results on 1 substance are retold here after patent US6040149A, “Assay for identifying agents which act on the ceramide-activated protein kinase, kinase suppressor of ras, and methods of using said agents” (priority 1997, dated 2000).

In data set [1] the test system is Raf-1. The data set is described as follows: Raf-1 phosphorylation in intact HL-60 cells. The format is cell-based, human (HL-60 cells). As to the method: To examine this possibility, intact HL-60 cells were metabolically labeled with ^32 P-orthophosphate for 4 hr followed by stimulation with TNF for the indicated times (FIG. 20A). […] Raf-1 proteins were resolved by SDS-PAGE and autoradiographed.
FIG. 20A--300×10^6 cells were resuspended at 37° C. in 15 ml of serum-free phosphate-free RPMI medium ([…]) containing 6 mCi ^32 P-orthophosphate. After […], cells were resuspended into the same buffer without radiolabel (5×10^7 /point) and stimulated with TNF (1 nM). At the indicated times, ice-cold serum-free phosphate-free RPMI was added and cells were homogenized as described in FIG. 17 in RIPA lysis buffer. Cell debris was removed by centrifugation at 700×g for 5 min. […] After SDS-PAGE, Raf-1 was transferred to an Immobilon PVDF (Millipore) membrane according to the vendor's instructions. […] The data (CPM/Raf protein) are presented as fold of control and represent one of three studies performed in triplicate.

For data set [2], the system named is ceramide-activated protein kinase. The data set is described as follows: EGFR peptide phosphorylation in a cell-free system (HL-60 nuclei-free supernate). The format is biochemical, human (HL-60 cells). As to the method: Effect of TNF-α on ceramide-activated protein kinase activity. HL-60 cells were incubated in serum-free medium and homogenized (as in FIG. 9). […] ATP (750 μM, 4000 dpm pmol^-1), and 75 μl of reaction buffer. […] Phosphorylated peptide was first run on a C18 Sep-Pak cartridge, then resolved by C18 reverse-phase HPLC (Waters, Milford, Mass.), with a linear gradient of acetonitrile. The peptide eluted at 30% acetonitrile, as determined by monitoring Cerenkov radiation in 1-ml fractions. Background activity was subtracted from each point. (A) Kinetics of TNF-α (30 nM)-stimulated EGFR peptide phosphorylation. Values (mean) represent data from four experiments. (B) Concentration dependence of EGFR peptide phosphorylation at 5 minutes of stimulation with TNF-α (0.01 to 30 nM). Values (mean) represent data derived from duplicate points in two experiments. The SEM of the values in (A) was 18% and the mean range of values in (B) was 3%.
Effect of phospholipases on ceramide-activated protein kinase activity. Nuclei-free supernates, prepared as in FIG. 9, were first incubated with TNF-α (3 nM) or added directly to reaction mixtures that contained various phospholipases; sphingomyelinase (SMase) (1×10^-3 U ml^-1, S. aureus), phospholipase A2 (PlA2) (3.8×10^-2 and 3.8×10^-1 U ml^-1, Vipera ruselli), phospholipase C (PLC) (3.8×10^-2 U ml^-1, Bacillus cereus) and phospholipase D (PLD) (3.8×10^-2 U ml^-1, Streptomyces chromocuscus). Peptide phosphorylation was measured as in FIG. 10. Control value represents peptide phosphorylation in the absence of phospholipases or TNF-α. Values (mean±SEM) represent data derived from duplicate samples in three experiments. *P<0.001 compared to control.
The effect of TNF-α on ceramide-activated protein kinase activity was assessed. […] For studies assessing the effect of TNFα in broken cell preparations, nuclei-free supernates were incubated under conditions sufficient for stimulation of neutral sphingomyelinase in a reaction mixture that also contained EGFR peptide and γ-^32 P-labeled ATP. Phosphorylated peptide was resolved by high-performance liquid chromatograph (HPLC) and quantified by Cerenkov counting. Kinase activity was calculated from the specific activity of [γ-^32 P] ATP and incorporation of ^32 P into EGFR peptide. Background activity was subtracted from each point. […] TNF-α stimulation of kinase activity was evident by 1 minute and demonstrable for at least 10 minutes. If the initial incubation with TNF-α at 4° C. was omitted and TNF was added directly to the reaction mixture at 22° C., the reaction was delayed. […] TNF-α enhanced kinase activity in a concentration-dependent manner at 5 minutes (FIG. 10B). […] This is similar to the ED50 of 200 pM for stimulation of ceramide-activated protein kinase by TNF-α in intact cells. TNF-α enhanced kinase activity in a total of 20 separate studies.
Control activity reflects several TNF-α-independent protein kinases that are known to phosphorylate EGFR peptide on Thr^669.

The test system of data set [3] is KSR/Raf-1 complex. The data set is described as follows: Co-immunoprecipitation of KSR and Raf-1 from treated COS-7 cells. The format is cell-based, mouse KSR (COS-7 cells). Particulars: TNFα. How it is done:
FIG. […] Cells were lysed with NP-40 buffer and subjected to 4 hr of immunoprecipitation with anti-Raf-1 antibody. Two controls, KSR and KSR with ceramide treatment, received protein A conjugated sepharose beads without anti-Raf-1 antibody. […] Data represent one of four similar experiments.
Cell lysates were subjected to immunoprecipitation with anti-Flag antibody. Immunoprecipitated samples were handled as in FIG. 24A except Western blot analysis was performed with anti-Raf-1 antibody. Data represent one of three similar experiments.
Anti-Raf-1 antibody conjugated beads were prepared by overnight incubation of 2 μl of anti-Raf-1 antibody (a kind gift of Dr. Debbie Morrison) with 5 mg of the protein A conjugated sepharose beads, followed by washing three times with NP-40 lysis buffer. […] Lysates (0.8 mg total protein) were then incubated for 4 hrs with anti-Raf-1 bound sepharose beads or anti-Flag conjugated agarose beads. The beads were washed vigorously 5 times, boiled in Laemmli sample buffer, and proteins were separated on 7.5% SDS-PAGE. After electrophoresis, the gel was transferred to PVDF membrane and probed with anti-Flag antibody or anti-Raf-1 antibody.

Take TNF-α: the “duration of elevated Raf-1 phosphorylation” value in data set [1] (TNF) is on record as “at least 20 min”. In addition, the “Raf-1 phosphorylation in intact HL-60 cells” value in data set [1] (TNF 1 nM, ceramide, sphingomyelinase 10 mU/ml) is listed as “increased within seconds”. Further, in data set [2] (5 minutes), the “concentration of maximal effect (kinase activity)” value is reported as 3 nM and the “effective concentration (kinase activity)” value is 10 pM. The “ED50 for kinase activity” value in data set [2] (5 minutes, cell-free) is reported as “≈ 300 pM”. Moreover, the “onset of stimulation of kinase activity” value in data set [2] (TNF-α 30 nM, P<0.001) was at most 1 min. Besides, the “KSR complex formation with Raf-1” value in data set [3] was “induced KSR to complex with Raf-1”.
